Experimental data taken from IntAct's records for PubMed 24352239.

Target: spt16_yeast SPT16 (UniProt P32558)
Sequence (P32558 whole entry): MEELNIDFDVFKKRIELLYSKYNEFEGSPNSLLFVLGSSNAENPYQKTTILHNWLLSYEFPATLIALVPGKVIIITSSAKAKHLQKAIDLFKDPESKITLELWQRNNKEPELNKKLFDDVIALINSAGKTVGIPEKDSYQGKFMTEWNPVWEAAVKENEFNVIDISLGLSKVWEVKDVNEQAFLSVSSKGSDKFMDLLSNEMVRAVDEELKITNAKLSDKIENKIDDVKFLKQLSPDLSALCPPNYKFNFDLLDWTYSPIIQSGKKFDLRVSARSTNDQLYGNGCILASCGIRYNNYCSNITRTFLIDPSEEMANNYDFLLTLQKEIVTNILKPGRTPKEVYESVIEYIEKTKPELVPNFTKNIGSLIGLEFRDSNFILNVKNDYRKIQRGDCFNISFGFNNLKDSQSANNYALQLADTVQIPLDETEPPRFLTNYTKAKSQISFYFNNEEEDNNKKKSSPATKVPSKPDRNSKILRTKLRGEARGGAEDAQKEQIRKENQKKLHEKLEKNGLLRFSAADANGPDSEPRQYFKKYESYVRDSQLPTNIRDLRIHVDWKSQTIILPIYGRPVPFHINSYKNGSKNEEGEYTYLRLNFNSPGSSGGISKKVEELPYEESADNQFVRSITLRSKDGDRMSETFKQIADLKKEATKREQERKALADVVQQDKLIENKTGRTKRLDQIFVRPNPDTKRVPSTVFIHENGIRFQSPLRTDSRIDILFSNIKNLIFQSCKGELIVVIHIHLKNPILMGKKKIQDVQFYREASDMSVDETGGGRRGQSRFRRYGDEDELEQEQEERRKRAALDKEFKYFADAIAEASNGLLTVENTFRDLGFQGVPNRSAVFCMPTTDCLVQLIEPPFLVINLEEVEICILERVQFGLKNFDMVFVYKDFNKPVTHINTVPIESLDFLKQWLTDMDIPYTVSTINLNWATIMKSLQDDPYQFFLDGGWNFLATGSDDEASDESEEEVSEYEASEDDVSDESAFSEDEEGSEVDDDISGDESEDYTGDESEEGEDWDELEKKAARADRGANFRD

effect of a mutation on the interaction: decreasing interaction strength
Substance: Histone H2A type 3 (Homo sapiens) (from UniProt Q7L7L0) Q105A
